From patent publication US7968692B2, “Elongase genes and uses thereof” (Abbott Laboratories, priority 1998, dated 2011)

B1: MAELO: Mortierella alpina elongase encoded by MAELO cDNA (SEQ ID NO:1), expressed in S. cerevisiae 334 from pRAE-5 (protein, listed as Mortierella alpina)
chain: MAAAILDKVNFGIDQPFGIKLDTYFAQAYELVTGKSIDSFVFQEGVTPLSTQREVAMWTITYFVVIFGGRQIMKSQDAFKLKPLFILHNFLLTIASGSLLLLFIENLVPILARNGLFYAICDDGAWTQRLELLYYLNYLVKYWELADTVFLVLKKKPLEFLHYFHHSMTMVLCFVQLGGYTSVSWVPITLNLTVHVFMYYYYMRSAAGVRIWWKQYLTTLQIVQFVLDLGFIYFCAYTYFAFTYFPWAPNVGKCAGTEGAALFGCGLLSSYLLLFINFYRITYNAKAKAAKERGSNFTPKTVKSGGSPKKPSKSKHI
B2: CEELO1: C. elegans elongase (SEQ ID NO:4), 288 amino acids, expressed in yeast from pRET-22 (protein)
chain: MAQHPLVQRLLDVKFDTKRFVAIATHGPKNFPDAEGRKFFADHFDVTIQASILYMVVVFGTKWFMRNRQPFQLTIPLNIWNFILAAFSIAGAVKMTPEFFGTIANKGIVASYCKVFDFTKGENGYWVWLFMASKLFELVDTIFLVLRKRPLMFLHWYHHILTMIYAWYSHPLTPGFNRYGIYLNFVVHAFMYSYYFLRSMKIRVPGFIAQAITSLQIVQFIISCAVLAHLGYLMHFTNANCDFEPSVFKLAVFMDTTYLALFVNFFLQSYVLRGGKDKYKAVPKKKNN
modifications: Caenorhabditis elegans

Key:
Type in all cases: cell-based, Saccharomyces cerevisiae
S. cerevisiae 334 [1] = test: MAELO co-expressed with Δ5-desaturase (pCGR-4) in yeast, AA production; conditions: 25 μM GLA; pRAE-5 and pCGR-4 co-transformed; FIG. 11
Experimental: Once 20:3n-6 is generated by the M. alpina elongase (MAELO), the Δ5-desaturase can convert it to AA in the desired expression system. To test this hypothesis, the constructs pRAE-5 and pCGR-4 (a Δ5-desaturase containing plasmid) were co-transformed into S. cerevisiae 334 and screened for AA production. The substrate used was 25 μM GLA (18:3n-6). If the M. alpina elongase (MAELO) is active in yeast, then the substrate will be converted to DGLA(20:3n-6), which the Δ5-desaturase will convert to AA(20:4n-6).

S. cerevisiae 334 [2] = test: Expression of M. alpina elongase (MAELO) cDNA in baker's yeast, GC-FAME analysis of lipid fraction; conditions: substrate GLA; 40-48 hours at 25° C.
Excerpt: The constructs pRAE-5, and pRAE-6 were transformed into S. cerevisiae 334 (Hoveland et al., Gene 83:57-64 (1989)) and screened for elongase activity. The plasmid pCGN7875 (Calgene LLC, Davis, Calif.) containing jojoba KCS gene in pYES2 vector (Invitrogen Corp., Carlsbad, Calif.) was used as a positive control. The substrate used to detect elongase activity in M. alpina elongase (MAELO) was GLA and that in jojoba KCS was oleic acid (OA). The negative control strain was S. cerevisiae 334 containing pYX242 vector. The cultures were grown for 40-48 hours at 25° C., in selective media (Ausubel et al., Short Protocols in Molecular Biology, Ch. 13, p. 3-5 (1992)), in the presence of a particular substrate. The expression of the jojoba KCS gene cloned in pYES2 was under the control of GAL1 promoter, while the promoter in pYX242 is TP1, which is constitutive. […] The GC-FAME analysis of the lipid fraction of each cell pellet was performed as previously described (Knutzon et al., supra).
The jojoba KCS elongates long chain monounsaturated fatty acids 18:1n-9 to 20:1n-9. […] The activity of the M. alpina elongase, elongation (MAELO) of long chain monounsaturated and saturated fatty acids, is seen in the conversion of 18:1n-9 to 20:1n-9 and also in the synthesis of 24:0. The control strain, 334(pYX242) has very little or no detectable amount of 20:1 and 24:0 (see FIG. 10A). […]

S. cerevisiae 334 [3] = test: Comparison of MAELO and S. cerevisiae ELO2 PUFA elongase activity in baker's yeast; conditions: 25 μM GLA
Excerpt: The ELO2 gene encoding for the yeast elongase was cloned from an S. cerevisiae genomic library (Origene, Rockville, Md.) using the primers RO514 (SEQ ID NO: 94) (5′-GGCTATGGATCCATGAATTCACTCGTTACTCAATATG-3′) and RO515 (SEQ ID NO: 95)(5′-CCTGCCAAGCTTTTACCTTTTTCTTCTGTGTTGAG-3′) incorporating the restriction sites (underlined) BamHI and HindIII (respectively). The ELO2 gene was cloned into the vector pYX242 at the BamHI and HindIII sites, designated pRELO, transformed into the S. cerevisiae host 334 (Hoveland et al., supra) and screened for PUFA elongase activity. The vector plasmid was used as a negative control and 334(pRAE-5) was grown to compare the PUFA elongase activity. The cultures were grown as previously described with no galactose in the media and 25 μM GLA added as a substrate. […] Additionally, when DGLA produced is expressed as a percent of the total lipids (shown in parenthesis, FIG. 12), the clones 334(pRELO-1) and 334 (pRELO-2) produced 0.153% and 0.2% DGLA respectively, while 334(pYX242) produced 0.185% DGLA. […] The M. alpina PUFA elongase activity is specific for this conversion as evidenced by the higher amount of DGLA produced compared to the control, 334(pYX242).

SC334 = test: MAD (M. alpina direct) cDNA expression library screening in yeast, GLA to DGLA
Experimental: To screen the library, the glycerol stocks were thawed and approximately 0.5 ml was added to 5 ml of liquid selective media lacking uracil (Ausubel et al., supra) and grown at 30° C. for 24 hours. The culture was then transferred into 50 ml of liquid selective medium lacking uracil with 2% galactose and 25 (D)M GLA (substrate for the elongase enzyme) for 24 hours at 25° C. with shaking. The GC-FAME analysis of the lipid content in the cell pellet of each induced culture was performed as previously described (Knutzon et al., supra). The MAELO (pRAE-5 in pYX242 grown in selective media lacking leucine) was used as a positive control in each batch run. MAELO had consistently been able to convert 1.5% of GLA to DGLA (see Example III).
After screening and analyzing approximately 750 individual pools by GC-FAME analysis, as described in Example VIII, one pool of five colonies (i.e., MAD708) appeared to have significant enzymatic activity in converting GLA to DGLA. […] This pool was tested again under identical assay conditions to confirm the initial findings. […] Since MAD708 was a pool of five different clones, it was necessary to isolate the individual cDNA clone which encoded for elongase activity from this pool. To do this, the original MAD708 glycerol stock was plated onto a selective media agar plate lacking uracil (Ausubel et al., supra). […]

S. cerevisiae 334 [4] = test: C. elegans elongase CEELO1 activity in yeast
Experimental: The plasmids pRET-21 and -22 were transformed into S. cerevisiae 334 as previously described (see Example III) and the resulting yeast cultures (334(pRET-21) and 334(pRET-22)) grown in 100 ml of selective media without leucine (Ausubel et al, supra) for 48 hours at 20° C. in the presence of 50 μM GLA and AA. […] The percent conversion of GLA to DGLA by 334(pRET-21) and 334(pRET-22) was 11.1% and 19.4% respectively with an average of 15.25%.
To further confirm the GLA elongation activity of CEELO1, the experiment described in the paragraphs above was repeated with the exception that GLA and AA were added to cultures of 334(pRET-22) separately. […] In this case, the percent conversion appears to be double that described in previous results (see FIG. 48) and may either be due to the absence of the additional substrate (AA) or the subculturing of the yeast.
Additionally, to further determine the substrate specificity of CEELO1, 50 μM of each substrate besides GLA (e.g., SA (18:0), OA (18:1), LA (18:2n-6), DGLA (20:3n-g), AA ([…]), ADA (22:4n-6), ALA (18:3n-3), PA ([…]), EPA (20:5n-3) and STA ([…])) was added individually to cultures of 334(pRET-22) and grown for 48 hours at 20° C., as described in Example XVII. […] The CEELO1 elongated 13% of STA incorporated to ETA (20:4n-3)(see FIG. 62).

yeast = test: Co-expression of CEELO1 and M. alpina Δ5 desaturase in yeast; conditions: pRET22 and pCGR4 co-expressed, FIG. 63
Experimental: Parallel to Examples III and XI, the C. elegans CEELO1 gene in the plasmid pRET22 and M. alpina Δ5 desaturase (pCGR-4; see Example III) were co-expressed in yeast to determine if AA or EPA could be produced from exogenously added GLA or STA, respectively. When a yeast culture containing both pRET22 and pCGR4 plasmids was grown in the presence of 50 μM GLA or STA in media lacking leucine and uracil, the percent conversion to the final products of AA and EPA, respectively, appeared identical (27% conversion)(see FIG. 63). Thus, simultaneous heterologous expression of CEEL01 and a Δ5 desaturase results in the biosynthesis of AA and EPA from GLA and STA, respectively in yeast.

[5] = 50 μM GLA and AA together, 48 hours at 20° C., FIG. 48
[6] = GLA and AA added separately, FIG. 61

Molecule | AA production (S. cerevisiae 334 [1]) | percentage of 20:3n-6 in total lipid (S. cerevisiae 334 [2]) [%] | total amount of 20:3n-6 produced (S. cerevisiae 334 [2]) [µg] | increase of percent DGLA over 334(pYX242) (negative control) (S. cerevisiae 334 [3]) [%] | DGLA produced as a percent of the total lipids (S. cerevisiae 334 [3]; FIG. 12) [%] | amount of 20:3n-6 or DGLA produced relative to negative control pYX242 (S. cerevisiae 334 [3]; FIG. 12) | conversion of GLA to DGLA (SC334; individual clones of MAD708 pool, FIG. 20) [%] | conversion of GLA to DGLA (SC334; positive control in each batch run of library screening) [%] | DGLA, average of the total lipid in the two samples (S. cerevisiae 334 [4]; [5]) [%] | percent conversion of GLA to DGLA (S. cerevisiae 334 [4]; [5]) [%] | elongation of AA or any endogenous fatty acid (S. cerevisiae 334 [4]; 50 μM GLA and AA together, FIG. 48) | STA incorporated elongated to ETA (20:4n-3) (S. cerevisiae 334 [4]; 50 μM STA, 48 hours at 20° C., FIG. 62) [%] | elongation of other exogenously added substrates (SA, OA, LA, DGLA, AA, ADA, ALA, PA, EPA, STA) (S. cerevisiae 334 [4]; 50 μM of each substrate individually, FIG. 62) | conversion rate of GLA to DGLA (S. cerevisiae 334 [4]; [6]) [%] | elongation activity of AA (S. cerevisiae 334 [4]; [6]) | average percent conversion of GLA to DGLA (S. cerevisiae 334 [4]; average of 334(pRET-21) and 334(pRET-22), 50 μM GLA and AA together) [%] | conversion rate of endogenous 16:1n-7 to 18:1n-7 (S. cerevisiae 334 [4]; endogenous substrate) [%] | percent conversion of GLA to final product AA (yeast; 50 μM GLA) [%] | percent conversion of STA to final product EPA (yeast; 50 μM STA) [%]
B1 | confirm the production of AA | 0.324 | 2.504 | 50.8 | 0.279 | approximately 4 times | 3.4 | 1.5 |  |  |  |  |  |  |  |  |  |  | 
B2 |  |  |  |  |  |  |  |  | 1.79 | 19.4 | almost no elongation | 13 | STA was the only exogenously added substrate that was elongated | 38.2 | No elongation activity of AA was detected | 15.25 | 9.12 | 27 | 27
